Data taken from publication doi:10.1101/2020.08.31.276014 (bioRxiv, 2020).

Target: the molecule itself
Experiment: SDS-PAGE of unboiled samples

B1: unencapsulated (naked) DypB (Rv0799c) purified from E. coli (enzyme)
chain: MAVPAVSPQPILAPLTPAAIFLVATIGADGEATVHDALSKISGLVRAIGFRDPTKHLSVVVSIGSDAWDRLFAGPRPTELHPFVELTGPRHTAPATPGDLLFHIRAETMDVCFELAGRILKSMGDAVTVVDEVHGFRFFDNRDLLGFVDGTENPSGPIAIKATTIGDEDRNFAGSCYVHVQKYVHDMASWESLSVTEQERVIGRTKLDDIELDDNAKPANSHVALNVITDDDGTERKIVRHNMPFGEVGKGEYGTYFIGYSRTPTVTEQMLRNMFLGDPAGNTDRVLDFSTAVTGGLFFSPTIDFLDHPPPLPQAATPTLAAGSLSIGSLKGSPR
  stoichiometry N: 4
